Laboratory results: the supplement of paper PMC12636428

Each sequence was assayed on Saccharomyces cerevisiae (assay: transcriptional activation domain activity (GFP:mCherry ratio, weighted mean of sorted bins, harmonized to initial dataset scale) (arbitrary fluorescence ratio units); higher = stronger transcriptional activation). Conditions: beta-estradiol 1 µM; induction time 4 h.
Method: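 53-aa protein tiles (fungal proteins plus yeast TF control tiles) fused C-terminally to a DBD-estrogen-binding domain-mCherry synthetic TF, integrated in S. cerevisiae (URA3 locus) with a GFP reporter. Cells were induced with 1 uM beta-estradiol for 4 h at 30 C, FACS-sorted into 8 bins by GFP:mCherry ratio and barcodes sequenced. Activity is the read-weighted mean bin fluorescence (GFP:mCherry), averaged over barcodes (median 12); tiles under 50 reads were discarded. New active-learning values were harmonized by linear fit onto the scale of the initial (Hummel et al.) dataset. The assay saturates at low and high signal.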

Row | Sequence | transcriptional activation domain activity
1 | AEDADADGRTQRQGKGAGASSGSERRTHKARSRKSAKLDSKEKDGEKDKEWKG | 23600
2 | AEDKARKEAEDKAREEAEEKAREEQEEAARARADAEAKKAALEAKREAEAKAK | 16300
3 | AEDRYIMELFVEDFICLAISGGPRLPVERAVSSWMVRILLSIQIRNYMQGNRQ | 44500
4 | AEDSDASMDDAPAPKEAAKKAAPVEAGSDSESDSEAEKKKKKAAKKSKKEVVP | 22600
5 | AEEEEDAEDEVVEEKIPAKRGRKPRGEKIEEVSSPAAAAPVRGKKAAAAAAKP | 24200
6 | AEEEQKKPKGKKAAAASKPKKSSDDEPAPGKSKPAARTGSIKGKSTGTKAGAQ | 22300
7 | AEEEVEEEVKEEEEEEAKEEEDANESEPEPAPEPAKKGRGRKAAKAPTPVEDE | 39700
8 | AEEGEEGRRKKGASKARSESGRSRIGGKRKEGEGEREGDEGRKKKRKKNKEKE | 32800
9 | AEEPAPEAPAPEEPAVEEAVPAEEAAPEAPAPVEEATPEKPVAAEEAAPEAPA | 32600
10 | AEEREAKKRAREEEEEEEAERAERAERAARLRRERAEEARRQAEQKHAEEARQ | 12100
11 | AEGADAEGEGEEGEKEQEQEKQDGEKDGSEKETGNGQDGKKSEASLSVLNRLL | 29400
12 | AEHVDLVGCPVHVMTRFWHLYLPAFTLHTVLYIFTLIRVLNCENSPQALLIRR | 56600
13 | AEKEAEPEKEAGSESPQKKITPMKRGRGRPKRGGGAAGASSPEPAAVVVVAER | 14700
14 | AEPSIYSNLFLDARLPNNANSTTGLNDNDYNLDDTNNDNTNSMQSILEDFVSS | 75100
15 | AESGGESAGNASGEDFAAPKKKSSRSRIKKALQSLGSGKLSPKNSRTPKASPV | 28400
16 | AESQLTLRAIVSSKEAGVIIGKGGKNVADLRDETGCKAGVSKVVQGVHDRVLT | 22300
17 | AESQSSRATHTRKRAKQACRQCNARRVRCNVAESQPCANCRSSGSACELLPSK | 26200

Row | Sequence | transcriptional activation domain activity
18 | AETKCEGATTNHMKVEKREKKKRGEKAADKSKEERRSKRKEKQRKEGKTVRNG | 6970
19 | AEYDVVLLKRLLYELNGRRNRLMVLPSRLALWEIVMPWVIDLVCRVRFNVTYT | 64600
20 | AFAGVLLCYFFILFYFIFFFLFFSWLLLLVEYIVWDNLINLLFLVSCFSFFFA | 55300
21 | AFEVSGKGRSRTREKVTLDLEELAGGAIDMSKSDLEHLVIHLFIKSYLRMSFV | 43100
22 | AFGGGNTTGGGMFGNNTSKPAFGGTSNTGGALFGGGSNTNTGTAGFGTSFGGT | 13900
23 | AFHKLQLERGWTGAKMVMHLLKVYFSWQYGHHCTVYRPIFMRDMALGGPYFSQ | 55200
24 | AFIHRLHEVYIVAWCMKNVHFMYLHPGVPFYVLCDCTRGDTIMTVHACAEPPP | 63000
25 | AFLCWVAPNNATANFIGAGFGGMGFLNLSLDWSNISNLYNLFLTPWWTQVVVY | 83700
26 | AFLCWVAPNNQVANFLGSGFGGMGFLNLSLDWSNISTNGSLFLTPWWTQVVMF | 52500
27 | AFLLFLIYLTFFCWVCFATSATWVWSEILSDNQYTESFMPINDVLLAVLSGII | 38700
28 | AFLLFLIYLTFFCWVCFATSATWVWTEILSDNQYTESFMPINDVLLAVLSGII | 47600
29 | AFLLFLIYLTLFCWVCFATSSTWVWSEILSDGQYTESFMPVNYVLLAVLSGII | 49600
30 | AFLLFLLYLTFFCWVCFATSATWVWSEILSDNQYTESFMPINDVLLAVLSGII | 53100
31 | AFLLPFANHHRFVSYCLYVFGFIFFVFSLEKGYYKQQFTQFCVTHMCLLLVVF | 39800
32 | AFLVGGGSAFWVLGYGLFYWASRLSLDSFTSVMLYLGYLLLLVLLVFLVTGTI | 42700
33 | AFMVSRMVILPFVYSLPVLYDILRPFTAHFLRPKFTLTFLWTHFDLITRVFFL | 53400
34 | AFRWIAAFYGLTLATHFTGTVILVSHIAHHVVQAKCILGHRGGPYFYIMRVLV | 61400
